In patent US20240182596A1 (TUBULIS, published 2024):
Residue numbers refer to the chain shown, from its start.

B1: AV-15 antibody (antibody, human IgG1, kappa, L234A L235A, V domains shown)
VH: EVQLVQSGAEVVKPGASVKMSCKASGYTFTGYNIHWVKQAPGQGLEWIGAIYPGNGDTSYKQKFRGRATLTADTSTSTVYMELSSLRSEDSAVYYCARGETARATFAYWGQGTLVTVSS
VL: DIQMTQSPSSLSASVGDRVTITCSASQDIGKFLNWYQQKPGKTVKVLIYYSSSLYSGVPSRFSGSGSGTDYTLTISSLQPEDFATYYCQQYSKVPLTFGQGTKLELKR
B2: Upifitamab (antibody, human IgG1, kappa, L234A L235A, V domains shown)
VH: B1 VH
VL: B1 VL with K31N, S51T, V94L
notes: Bought from MedChemExpress
B3: AV-18 antibody (antibody, human IgG1, kappa, L234A L235A, V domains shown)
VH: B1 VH with N33I, N55S, D57A
VL: B1 VL with K31N, S51T, V94L
B4: AV-29 antibody (antibody, human IgG1, kappa, L234A L235A, V domains shown)
VH: B1 VH with H35L, D57G, L70I, T101I
VL: B1 VL with K31N, S51A, V94L
B5: AV-21 antibody (antibody, human IgG1, kappa, L234A L235A, V domains shown)
VH: B1 VH with Y32Q, N33I, Y52S, G56S, D57G
VL: B1 VL with K31N, S51T, V94L

Tests used:
[1] = molecular target: T1, human NaPi2b on NaPi2b-positive cell lines OVCAR-3 and HCC-78 (human, UniProt O95436 1-690); test: flow cytometry on OVCAR-3 cells; table column Binding KD (nmol/L), FACS (OVCAR-3)
T1 construct: Endogenous protein
T1 sequence: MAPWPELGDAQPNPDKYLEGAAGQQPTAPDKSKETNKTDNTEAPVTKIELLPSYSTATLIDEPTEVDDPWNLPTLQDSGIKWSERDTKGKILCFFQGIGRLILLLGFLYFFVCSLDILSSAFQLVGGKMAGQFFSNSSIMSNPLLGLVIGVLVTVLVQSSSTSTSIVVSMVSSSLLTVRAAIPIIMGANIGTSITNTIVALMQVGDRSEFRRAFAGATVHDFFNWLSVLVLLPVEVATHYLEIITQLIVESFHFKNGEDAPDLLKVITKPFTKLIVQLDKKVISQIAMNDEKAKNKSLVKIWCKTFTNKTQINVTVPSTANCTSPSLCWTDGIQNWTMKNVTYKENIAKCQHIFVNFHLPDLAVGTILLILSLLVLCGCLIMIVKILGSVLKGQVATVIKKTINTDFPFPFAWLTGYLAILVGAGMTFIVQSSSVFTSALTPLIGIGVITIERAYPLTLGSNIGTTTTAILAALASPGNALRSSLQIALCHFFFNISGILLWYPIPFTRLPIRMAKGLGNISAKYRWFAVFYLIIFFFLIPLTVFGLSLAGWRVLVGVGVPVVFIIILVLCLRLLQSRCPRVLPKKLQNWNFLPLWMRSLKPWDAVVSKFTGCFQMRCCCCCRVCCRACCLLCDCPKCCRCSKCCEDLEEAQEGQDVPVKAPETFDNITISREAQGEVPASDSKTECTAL

[2] = molecular target: T2, purified recombinant human Napi2b antigen consisting of Napi2b-extracellular-loop2 expressed as … (human, UniProt O95436 234-362, limits assumed); test: ELISA on the isolated immobilized protein; table column Binding KD (nmol/L), ELISA
T2 construct: Expressed in Expi-HEK293 cells; also called immobilized human NaPi2B; not shown: Fc part; 6-His tag
T2 sequence: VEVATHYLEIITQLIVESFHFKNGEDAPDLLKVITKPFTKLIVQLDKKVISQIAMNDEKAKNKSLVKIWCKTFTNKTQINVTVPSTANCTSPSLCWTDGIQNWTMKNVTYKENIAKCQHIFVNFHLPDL

[3] = molecular target: T3, human Napi2b-mCherry on HEK293 cells (human, UniProt O95436 1-690); test: flow cytometry on HEK293 cells stably expressing human full-length NaPi2b-mCherry, Alexa-dye anti-human IgG H+L secondary antibody, MFI ratio, one-site specific binding fit; the Kd table prints no unit, the concentration axis is in nM
T3 construct: also called Napi2b (SLC34A2); HEK293 cells overexpressing Napi2b
T3 sequence: T1 sequence
Description: (§1) HEK293 cells stably overexpressing human and rat Napi2b were generated by stable integration of a human or rat full-length Napi2b-mCherry-(GGGS)3x-mCherry expression construct under control of a human EF1 promoter and a Puromycin-selection cassette under a CMV promoter into the parental HEK293 cell line. In brief, cells were transfected with the linearized plasmids using Lipfectamine 2000 (Thermo Fisher) and selected with Puromycin antibiotic. Cells were then single cell cloned in 96-well plates via serial dilution under continuous antibiotic selection. Clones were screened for target expression via flow cytometry and mCherry fluorescence via flow cytometry and fluorescence microscopy. Target- and mCherry-positive clones were expanded and used for further experiments. […] Binding of antibodies was investigated on mCherry-positive cells. Mean fluorescence intensity (MFI) ratios were normalized to the secondary antibody control. The assay was performed in duplicates and data points were analyzed by a non-linear regression using a one-site specific binding model to derive KD values using Prism 9 software.

[4] = molecular target: T4, HEK293 cyno-NaPi2B-mCherry (Macaca fascicularis, UniProt A0A2K5UHY1); test: flow cytometry on HEK293 cells stably expressing cynomolgus full-length NaPi2b-mCherry, Alexa-dye anti-human IgG H+L secondary antibody, MFI ratio, one-site specific binding fit; the Kd table prints no unit, the concentration axis is in nM
T4 construct: full-length mCherry fusion stably expressed on HEK293 cells; also called cynomolgus full-length NaPi2b-mCherry on HEK293 cells
T4 sequence (target on cells): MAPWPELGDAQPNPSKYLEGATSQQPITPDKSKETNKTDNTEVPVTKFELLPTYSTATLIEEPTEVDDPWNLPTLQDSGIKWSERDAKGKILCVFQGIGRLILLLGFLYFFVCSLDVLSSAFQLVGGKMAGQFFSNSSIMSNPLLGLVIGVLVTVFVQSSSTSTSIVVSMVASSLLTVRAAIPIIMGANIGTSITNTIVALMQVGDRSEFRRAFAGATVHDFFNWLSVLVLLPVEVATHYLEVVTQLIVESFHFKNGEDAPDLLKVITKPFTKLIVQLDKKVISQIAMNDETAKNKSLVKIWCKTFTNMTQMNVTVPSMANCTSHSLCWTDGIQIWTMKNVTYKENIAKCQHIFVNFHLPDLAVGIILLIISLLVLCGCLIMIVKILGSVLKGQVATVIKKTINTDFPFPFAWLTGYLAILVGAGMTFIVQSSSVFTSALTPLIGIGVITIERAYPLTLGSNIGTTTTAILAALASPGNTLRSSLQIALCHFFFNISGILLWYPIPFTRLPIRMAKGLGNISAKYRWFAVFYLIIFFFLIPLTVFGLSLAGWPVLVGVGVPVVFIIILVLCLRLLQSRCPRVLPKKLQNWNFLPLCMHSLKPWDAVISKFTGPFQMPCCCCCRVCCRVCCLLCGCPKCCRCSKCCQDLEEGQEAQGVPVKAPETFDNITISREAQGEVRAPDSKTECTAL
Description: as §1

[5] = molecular target: T2, purified recombinant human Napi2b …; test: ELISA, coated Napi2b-extracellular-loop2-Fc-6-His, apparent KD from one-site fit
Protocol: To determine binding of parental and AV mAb clones to Napi2b antigen, flat-bottom surface-treated 96-well-plates (Nunclon, Thermo Fisher Scientific) were coated with 1 μg/mL purified recombinant human Napi2b antigen consisting of Napi2b-extracellular-loop2 expressed as Fc-fusion-6-His-tagged protein in Expi-HEK293 cells. […] Bound antibodies were detected by incubation with HRP-conjugated goat anti-human kappa light chain secondary antibody (dilution 1:10000 in blocking solution) for 1 hr at RT. […] Absorbance at 450 nm was measured within 10 min of addition of acid using a microplate reader Infinite M1000 Pro (Tecan). Apparent dissociation constants (KD) were derived by non-linear regression using a one-site specific binding model using Prism 9 software.

[6] = molecular target: T1, human NaPi2b on NaPi2b-positive cell …; test: flow cytometry on NaPi2b-positive OVCAR-3 cells, Alexa-dye-labeled anti-human IgG H+L secondary antibody, MFI ratio normalized to the non-specific binding control
Protocol: (§2) To determine concentration-dependent binding, NaPi2b-positive OVCAR-3 and HCC-78 were incubated with antibodies in concentrations ranging from 0.00075 to 30 μg/ml, stained with an Alexa-dye-labeled anti-human IgG H+L secondary antibody (Thermo Fisher Scientific), and analyzed by flow cytometry. Mean fluorescence intensity (MFI) ratios were normalized to the non-specific binding control. The assay was performed in duplicates and data points were analyzed by a non-linear regression using a one-site specific binding model using Prism 9 software.

[7] = molecular target: T1, human NaPi2b on NaPi2b-positive cell …; test: flow cytometry on OVCAR-3 cells, one-site fit
Protocol: as §2

[8] = molecular target: T1, human NaPi2b on NaPi2b-positive cell …; test: flow cytometry on NaPi2b-positive HCC-78 cells, Alexa-dye-labeled anti-human IgG H+L secondary antibody, MFI ratio normalized to the non-specific binding control
Protocol: as §2

[9] = molecular target: T1, human NaPi2b on NaPi2b-positive cell …; test: flow cytometry on HCC-78 cells, one-site fit
Protocol: as §2

Binder | Kd [1] [nM] | Kd [2] [nM] | Kd [3] [nM] | Kd [4] [nM] | Kd [5] [µg/mL] | EC50 (read off the curve) [6] [µg/mL] | Kd [7] [µg/mL] | EC50 (read off the curve) [8] [µg/mL] | Kd [9] [µg/mL]
B1 | 6.6 | 0.105 | 3.5 | 2.7 | 0.0158 |  |  |  | 
B2 |  |  |  |  |  | ~1 | 1.11 | ~1 | 1.27
B3 | 3.8 | 0.099 | 2.31 | 1.61 | 0.0149 |  |  |  | 
B4 | 3.5 | 0.082 | 2.66 | 1.91 | 0.0124 |  |  |  | 
B5 | 3.5 | 0.083 | 2.08 | 1.5 | 0.0125 |  |  |  | 
